From article PMC4768041

Assays:
Assay in all cases: SPR
Conditions in all cases: BIACORE 3000, RsmA-His6 (961 RU) on NTA chip; running buffer 10 mM Tris-HCl pH 7.5, 150 mM NaCl, 0.05% Tween (v/v), 1 mM [text truncated]; solutions degassed …
[1] = test system: RsmA-His6 (Pseudomonas aeruginosa)
[2] = test system: RsmA-His6 (Pseudomonas aeruginosa); remark: listed apart in the source
[3] = test system: RsmA-His6 (Pseudomonas aeruginosa); remark: listed apart in the source

For cupA1 leader RNA, the binding signal (% lower RU than rsmZ RNA) [1] was 50, the binding signal (% lower RU than rsmZ RNA) [2] was 67 and the binding signal (% lower RU than rsmZ RNA) [3] was 59.
